B1: GTP-binding protein Di-Ras1 (Mus musculus), Q91Z61 (parent)
chain: MPEQSNDYRVVVFGAGGVGKSSLVLRFVKGTFRDTYIPTIEDTYRQVISCDKSVCTLQITDTTGSHQFPAMQRLSISKGHAFILVFSVTSKQSLDELSPIYKLIVQIKGSVEDIPIMLVGNKCDETQREVHTREAQAVAQEWKCAFMETSAKMNYNVKELFQELLTLETRRSVSLSVDGKRSSKQKRADRIKGKCALM
B2: Phosphatidylinositol 4,5-bisphosphate 3-kinase catalytic subunit beta isoform (Mus musculus), Q8BTI9 (parent)
chain: MPPAMADNLDIWAVDSQIASDGAISVDFLLPTGIYIQLEVPREATISYIKQMLWKQVHNYPMFNLLMDIDSYMFACVNQTAVYEELEDETRRLCDVRPFLPVLKLVTRSCDPAEKLDSKIGVLIGKGLHEFDALKDPEVNEFRRKMRKFSEAKIQSLVGLSWIDWLKHTYPPEHEPSVLENLEDKLYGGKLVVAVHFENSQDVFSFQVSPNLNPIKINELAIQKRLTIRGKEDEASPCDYVLQVSGRVEYVFGDHPLIQFQYIRNCVMNRTLPHFILVECCKIKKMYEQEMIAIEAAINRNSSNLPLPLPPKKTRVISHIWDNNNPFQITLVKGNKLNTEETVKVHVRAGLFHGTELLCKTVVSSEISGKNDHIWNEQLEFDINICDLPRMARLCFAVYAVLDKVKTKKSTKTINPSKYQTIRKAGKVHYPVAWVNTMVFDFKGQLRSGDVILHSWSSFPDELEEMLNPMGTVQTNPYAENATALHITFPENKKQPCYYPPFDKIIEKAAELASGDSANVSSRGGKKFLAVLKEILDRDPLSQLCENEMDLIWTLRQDCRENFPQSLPKLLLSIKWNKLEDVAQLQALLQIWPKLPPREALELLDFNYPDQYVREYAVGCLRQMSDEELSQYLLQLVQVLKYEPFLDCALSRFLLERALDNRRIGQFLFWHLRSEVHTPAVSVQFGVILEAYCRGSVGHMKVLSKQVEALNKLKTLNSLIKLNAVKLSRAKGKEAMHTCLKQSAYREALSDLQSPLNPCVILSELYVEKCKYMDSKMKPLWLVYSSRAFGEDSVGVIFKNGDDLRQDMLTLQMLRLMDLLWKEAGLDLRMLPYGCLATGDRSGLIEVVSTSETIADIQLNSSNVAATAAFNKDALLNWLKEYNSGDDLDRAIEEFTLSCAGYCVASYVLGIGDRHSDNIMVKKTGQLFHIDFGHILGNFKSKFGIKRERVPFILTYDFIHVIQQGKTGNTEKFGRFRQCCEDAYLILRRHGNLFITLFALMLTAGLPELTSVKDIQYLKDSLALGKSEEEALKQFKQKFDEALRESWTTKVNWMAHTVRKDYRS

Variants of: B1
Conditions: with pk3cb_mouse Pik3cb

Variant	effect of a mutation on the interaction
I37D	decreasing interaction strength

Variants of: B2
Conditions: with rac1_mouse Rac1, P63001

Variant	effect of a mutation on the interaction
Q223D	decreasing interaction strength
R229A	disrupting interaction strength
A194K	disrupting interaction strength
A194S	decreasing interaction strength
K190A	decreasing interaction strength
V192S	disrupting interaction strength
V192K	disrupting interaction strength
K231A	decreasing interaction strength
S205D;K224A	decreasing interaction strength
Q207D	decreasing interaction strength
V203S	disrupting interaction strength
V203K	disrupting interaction strength
E183A	decreasing interaction strength
E219A	decreasing interaction strength
T227D	decreasing interaction strength
D202A	disrupting interaction strength
Y187A	disrupting interaction strength
L186A	disrupting interaction strength
K185A	decreasing interaction strength

Variants of: B2
Conditions: with cdc42_mouse Cdc42, P60766
Sequence of cdc42_mouse Cdc42, P60766 (P60766 whole entry, looked up): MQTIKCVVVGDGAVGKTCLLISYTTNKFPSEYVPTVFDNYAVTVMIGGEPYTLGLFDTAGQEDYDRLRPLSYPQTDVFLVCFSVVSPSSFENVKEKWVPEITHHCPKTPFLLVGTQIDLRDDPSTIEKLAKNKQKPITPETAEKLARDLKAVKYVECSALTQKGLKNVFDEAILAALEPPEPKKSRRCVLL

Variant	effect of a mutation on the interaction
Q223D	decreasing interaction strength
R229A	disrupting interaction strength
A194K	disrupting interaction strength
A194S	decreasing interaction strength
K190A	decreasing interaction strength
V192S	disrupting interaction strength
V192K	disrupting interaction strength
K231A	disrupting interaction strength
S205D;K224A	decreasing interaction strength
Q207D	decreasing interaction strength
V203S	disrupting interaction strength
V203K	disrupting interaction strength
E183A	decreasing interaction strength
E219A	decreasing interaction strength
T227D	disrupting interaction strength
D202A	disrupting interaction strength
Y187A	disrupting interaction strength
L186A	disrupting interaction strength
K185A	decreasing interaction strength

Variants of: B2
Conditions: with rac1_mouse Rac1, P63001
Remark: another data set of the same source

Variant	effect of a mutation on the interaction
S205D;V244A	disrupting interaction strength

Variants of: B2
Conditions: with cdc42_mouse Cdc42, P60766
Remark: another data set of the same source

Variant	effect of a mutation on the interaction
S205D;K224A	disrupting interaction strength

Variants of: B2
Conditions: with rash_mouse Hras

Variant	effect of a mutation on the interaction
S205D;K224A	disrupting interaction strength

Variants of: B2
Conditions: with rac1_mouse Rac1, P63001
Remark: another data set of the same source

Variant	effect of a mutation on the interaction
S205D;K224A	disrupting interaction

Variants of: B2
Conditions: with cdc42_mouse Cdc42, P60766
Remark: another data set of the same source

Variant	effect of a mutation on the interaction
S205D;K224A	disrupting interaction

Source: IntAct's records for PubMed 23706742
